From publication PMC11193018 (The Journal of Biological Chemistry, 2024)

Key:
[1] = target: Methanocaldococcus jannaschii GINS, wild type, non-His-tagged (Methanocaldococcus jannaschii); assay: SEC
[2] = target: MjGINS domain A (residues 21-115), as crystallized (Methanocaldococcus jannaschii); assay: crystal structure
[3] = target: MjGINS-M, dimeric mutant of MjGINS (K58A, K74A, K78A, I101A, I105A) (Methanocaldococcus jannaschii); assay: SEC
[4] = target: the molecule itself; assay: crystal structure
[5] = target: the molecule itself; assay: SEC

Methanocaldococcus jannaschii GINS, wild type, non-His-tagged (natural protein)
stoichiometry N [1]: 4

MjGINS domain A (residues 21-115), as crystallized (domain or fragment)
stoichiometry N [2]: 4

MjGINS-M, dimeric mutant of MjGINS (K58A, K74A, K78A, I101A, I105A) (natural protein)
stoichiometry N [3]: 2

B1: Methanocaldococcus jannaschii RecJ2, tag-free, for crystallization (enzyme)
chain: MMEKLKEIEKVTKAIKEKILNHYGYIRVITHHDTDGLSSGGILAKMLMRTNKLFHLTVVEHLSKEVIEKLAKENEVNKPLFIFADMGSGQIEEIIKHNFNAIILDHHPPVIKDSFINENIIQLNPHIFGVDGSREITASGVCYLVAREFGYYDLSVLAIVGIIGDMQYNPLLGLNKFIVNEAREYRYVKIMNDIVYNIYDVEIYKAIAYCTKPYIPDLASEGKAFKFLKDIGIDPNKKQLDDTDKKKLLSAIIFKYPKIENLLIDRYLIEHKVRDAFLLSEMLNAVGRNGLFAVGIGICLEDDECIKIGNQILWEYKKNLINELKSVKLKKLNNIYYFEGKKGMIGIIASILVDDKPVIGYHIEGDIAKFSARGNRDLVNRGLNLSVAMAVAKEFGGNGGGHDVASGAVVSKDKVQEFLKRVDEIIGEQLRR
stoichiometry N [4]: 2

B2: Methanocaldococcus jannaschii RecJ2, wild type, His-tagged (enzyme)
chain: B1 chain
stoichiometry N [5]: 2
